The record followed here is patent publication US20170174740A1.

The target in experiment [1] is syntaxin (SNARE protein; expressed from a plasmid in CHO cells for co-immunoprecipitation). Briefly: co-immunoprecipitation with anti-syntaxin from CHO cells expressing syntaxin and Kv2.1 with C1a441-472 co-expressed as competitor; the ratio is Kv2.1 pulled down with syntaxin; mean±SEM, n=3.
Experiment [2] shares this target. As to the kind of experiment: co-immunoprecipitation with anti-syntaxin from CHO cells expressing syntaxin and Kv2.1, no C1a segment; mean±SEM, n=3.

Sequence of syntaxin (SNARE protein; expressed from a plasmid in CHO cells for co-immunoprecipitation) (Q16623 whole entry): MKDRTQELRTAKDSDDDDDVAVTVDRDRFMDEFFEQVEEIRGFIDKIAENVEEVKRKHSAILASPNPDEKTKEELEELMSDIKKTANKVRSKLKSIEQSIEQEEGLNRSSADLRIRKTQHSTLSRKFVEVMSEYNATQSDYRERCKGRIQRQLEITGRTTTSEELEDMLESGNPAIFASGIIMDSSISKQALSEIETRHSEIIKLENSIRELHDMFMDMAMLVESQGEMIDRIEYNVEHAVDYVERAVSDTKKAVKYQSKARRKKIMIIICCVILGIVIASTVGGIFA

B1: C1a441-472 (overlapping middle segment of C1a) (peptide)
peptide: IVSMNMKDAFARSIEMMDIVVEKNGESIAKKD
As to B1, in experiment [1], the ratio of Kv2.1 to syntaxin immunoblots was 0.25.

B2: Kv2.1 (wild-type voltage-dependent delayed-rectifier K+ channel, expressed in CHO cells) (protein)
chain: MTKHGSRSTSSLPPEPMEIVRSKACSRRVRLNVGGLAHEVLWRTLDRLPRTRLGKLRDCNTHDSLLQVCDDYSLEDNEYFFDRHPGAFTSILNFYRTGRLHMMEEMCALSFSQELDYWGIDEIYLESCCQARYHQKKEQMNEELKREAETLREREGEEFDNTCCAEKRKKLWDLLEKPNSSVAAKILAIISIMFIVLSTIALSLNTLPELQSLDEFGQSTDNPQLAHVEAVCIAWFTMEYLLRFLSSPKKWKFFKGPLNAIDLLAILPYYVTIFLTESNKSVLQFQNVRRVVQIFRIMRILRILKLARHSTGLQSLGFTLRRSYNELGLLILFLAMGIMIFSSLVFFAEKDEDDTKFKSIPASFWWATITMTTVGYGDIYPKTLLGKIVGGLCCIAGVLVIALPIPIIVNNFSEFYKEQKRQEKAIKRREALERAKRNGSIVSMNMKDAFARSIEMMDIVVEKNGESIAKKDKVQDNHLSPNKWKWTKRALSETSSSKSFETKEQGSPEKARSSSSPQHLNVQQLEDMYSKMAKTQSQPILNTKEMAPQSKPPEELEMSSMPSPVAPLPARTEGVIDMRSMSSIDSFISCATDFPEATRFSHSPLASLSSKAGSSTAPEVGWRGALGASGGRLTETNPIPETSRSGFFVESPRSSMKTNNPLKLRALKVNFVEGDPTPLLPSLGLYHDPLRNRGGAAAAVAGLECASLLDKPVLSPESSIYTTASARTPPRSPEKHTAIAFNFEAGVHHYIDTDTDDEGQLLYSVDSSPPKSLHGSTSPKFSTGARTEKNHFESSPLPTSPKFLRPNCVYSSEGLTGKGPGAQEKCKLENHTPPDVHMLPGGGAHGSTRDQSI
Regarding B2, the ratio of Kv2.1 to syntaxin immunoblots in experiment [2] stood at 0.24.
